Experimental data from US20170368169A1 (MARENGO THERAPEUTICS, published 2017).

What was measured:
[1] = target: T1, human mesothelin (generated from SEQ ID NO: 181) (human); test: ELISA on plate-bound antigen, molecule titrated 1 uM-1 pM
T1 construct: Antigen construct made in house; BirA was co-transfected when biotinylation was required; also called hMeso 1-7; hMesothelin
T1 chain: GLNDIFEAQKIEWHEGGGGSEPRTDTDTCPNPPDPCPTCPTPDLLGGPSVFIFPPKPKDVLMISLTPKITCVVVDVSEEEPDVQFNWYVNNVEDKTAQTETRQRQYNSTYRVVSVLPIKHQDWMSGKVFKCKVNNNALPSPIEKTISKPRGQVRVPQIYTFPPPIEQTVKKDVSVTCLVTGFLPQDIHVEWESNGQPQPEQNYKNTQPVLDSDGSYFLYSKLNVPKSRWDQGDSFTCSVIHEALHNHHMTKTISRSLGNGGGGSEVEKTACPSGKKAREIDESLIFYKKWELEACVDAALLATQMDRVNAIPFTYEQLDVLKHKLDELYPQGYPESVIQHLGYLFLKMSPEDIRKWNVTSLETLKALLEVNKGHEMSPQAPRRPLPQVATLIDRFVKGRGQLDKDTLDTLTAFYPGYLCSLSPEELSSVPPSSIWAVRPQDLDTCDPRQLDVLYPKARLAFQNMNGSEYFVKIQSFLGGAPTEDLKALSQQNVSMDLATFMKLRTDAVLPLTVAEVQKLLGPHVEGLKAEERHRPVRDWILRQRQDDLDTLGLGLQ

[2] = target: T2, human PD1L1 (generated from SEQ ID NO: 178) (human); test: as above
T2 construct: Antigen construct made in house; also called hPD1L1; human PDL1

B1: Multispecific molecule 5 (bispecific antibody, human IgG1, kappa, lambda)
heavy 1: not shown
light 1: not shown
heavy 2: EVQLLESGGGLVQPGGSLRLSCAASGFTFSSYIMMWVRQAPGKGLEWVSSIYPSGGITFYADTVKGRFTISRDNSKNTLYLQMNSLRAEDTAVYYCARIKLGTVTTVDYWGQGTLVTVSSASTKGPSVFPLAPSSKSTSGGTAALGCLVKDYFPEPVTVSWNSGALTSGVHTFPAVLQSSGLYSLSSVVTVPSSSLGTQTYICNVNHKPSNTKVDKRVEPKSCDKTHTCPPCPAPELLGGPSVFLFPPKPKDTLMISRTPEVTCVVVDVSHEDPEVKFNWYVDGVEVHNAKTKPREEQYNSTYRVVSVLTVLHQDWLNGKEYKCKVSNKALPAPIEKTISKAKGQPREPQVCTLPPSREEMTKNQVSLSCAVKGFYPSDIAVEWESNGQPENNYKTTPPVLDSDGSFFLVSKLTVDKSRWQQGNVFSCSVMHEALHNHYTQKSLSLSPGK
light 2: QSALTQPASVSGSPGQSITISCTGTSSDVGGYNYVSWYQQHPGKAPKLMIYDVSNRPSGVSNRFSGSKSGNTASLTISGLQAEDEADYYCSSYTSSSTRVFGTGTKVTVLGQPKANPTVTLFPPSSEELQANKATLVCLISDFYPGAVTVAWKADGSPVKAGVETTKPSKQSNNKYAASSYLSLTPEQWKSHRSYSCQVTHEGSTVEKTVAPTECS
notes: Mesothelin targeting arm and PDL1 targeting arm
EC50 [1]: 163 nM | EC50 [2]: 0.25 nM
